Data as given in publication PMC4944284, “Identification of a Functionally Relevant Adeno-Associated Virus Rep68 Oligomeric Interface” (Journal of Virology, 2016).
Numbering of substitutions follows the chain as printed. Names and notes keep the numbering of the source.

B1: Rep68* (AAV2 Rep68 C151S) (enzyme)
chain: MPGFYEIVIKVPSDLDGHLPGISDSFVNWVAEKEWELPPDSDMDLNLIEQAPLTVAEKLQRDFLTEWRRVSKAPEALFFVQFEKGESYFHMHVLVETTGVKSMVLGRFLSQIREKLIQRIYRGIEPTLPNWFAVTKTRNGAGGGNKVVDESYIPNYLLPKTQPELQWAWTNMEQYLSACLNLTERKRLVAQHLTHVSQTQEQNKENQNPNSDAPVIRSKTSARYMELVGWLVDKGITSEKQWIQEDQASYISFNAASNSRSQIKAALDNAGKIMSLTKTAPDYLVGQQPVEDISSNRIYKILELNGYDPQYAASVFLGWATKKFGKRNTIWLFGPATTGKTNIAEAIAHTVPFYGCVNWTNENFPFNDCVDKMVIWWEEGKMTAKVVESAKAILGGSKVRVDQKCKSSAQIDPTPVIVTSNTNMCAVIDGNSTTFEHQQPLQDRMFKFELTRRLDHDFGKVTKQEVKDFFRWAKDHVVEVEHEFYVKKGGAKKRPAPSDADISEPKRVRESVAQPSTSDAEASINYADRLARGHSL
notes: source: E. coli BL21(DE3), purified (Ni column, gel filtration on Superdex 200)
B2: Rep68*-Y224F (enzyme)
chain: B1 chain with Y224F
notes: also called Y224F mutant; source: E. coli BL21(DE3), purified (Ni column, gel filtration on Superdex 200)
B3: Rep68*-Y224P (enzyme)
chain: B1 chain with Y224P
notes: as for B1
B4: Rep68*-Y224D (enzyme)
chain: B1 chain with Y224D
notes: as for B1
B5: Rep68*-N254A (enzyme)
chain: B1 chain with N254A
notes: as for B1

Tests used:
[1] = molecular target: the molecule itself; assay: AUC; sedimentation velocity, protein 10 uM, 25 mM Tris-HCl pH 8.0, 200 mM NaCl, 25,000 rpm, 20°C, SEDFIT (Fig. 1B, C)
[2] = molecular target: the molecule itself; assay: AUC; sedimentation velocity, all proteins at 1 mg/ml, else as in Materials and Methods (25 mM Tris-HCl pH 8.0, 200 mM NaCl, 20°C) (Fig. 2D)

Row | Protein | binding result [1] | binding result [2]
1 | B1 | binds | –
2 | B2 | binds | –
3 | B3 | binds | –
4 | B4 | binds | –
5 | B5 | – | binds
